Data from US20250074943A1 (Amgen, published 2025).
Bridge positions count the residues as written; N and C are the ends. Primed or numbered codes have the meaning given here. Ends that are not written are not given here. K(PEG4-DBCO-FEA) = Lys whose side chain carries PEG4-DBCO conjugated to fluoroethylazide (FEA); Ttds″ = trioxatridecan-succinamic acid linker

Assays:
[1] = biological target: T1, human DLL3 expressed on the surface of cells (human, UniProt Q9NYJ7 27-618); assay: phage cell ELISA/FACS on DLL3-expressing cells;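 also: phages incubated 1 h at room temperature with cells overexpressing human DLL3, read by flow cytometry fluorescence, then fixed-cell ELISA with anti-M13-HRP at A370 nm, parental cells alongside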
T1 construct: Stably transfected CHO or HEK293 cells; also called huDLL3; hDLL3
T1 sequence: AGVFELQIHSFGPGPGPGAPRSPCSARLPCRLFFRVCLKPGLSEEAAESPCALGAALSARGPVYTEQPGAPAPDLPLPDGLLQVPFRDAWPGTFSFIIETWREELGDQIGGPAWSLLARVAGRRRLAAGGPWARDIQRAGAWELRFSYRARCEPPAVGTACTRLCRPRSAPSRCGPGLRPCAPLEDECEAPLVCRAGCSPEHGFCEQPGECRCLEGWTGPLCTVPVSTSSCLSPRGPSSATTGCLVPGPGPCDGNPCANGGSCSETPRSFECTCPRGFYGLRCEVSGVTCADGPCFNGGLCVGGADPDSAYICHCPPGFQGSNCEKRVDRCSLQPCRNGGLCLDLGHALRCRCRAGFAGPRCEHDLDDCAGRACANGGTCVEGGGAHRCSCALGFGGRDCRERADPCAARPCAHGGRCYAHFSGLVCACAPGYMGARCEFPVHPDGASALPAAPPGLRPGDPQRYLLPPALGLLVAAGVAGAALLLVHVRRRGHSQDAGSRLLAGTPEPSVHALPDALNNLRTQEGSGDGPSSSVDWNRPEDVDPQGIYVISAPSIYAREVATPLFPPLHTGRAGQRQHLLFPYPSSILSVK
Experimental: The pools of phages were also screened for their binding to cells overexpressing human DLL3 on their surface. Cells were detached, counted and re-suspended at 1.8×10⁶ cell/ml in FACS buffer containing 2% FBS. Pre-blocked phages were then added to the cells and incubated for 1 hr at room temperature. […] Cells were then washed and re-suspended into FACS buffer. Fluorescence was acquired using a flow cytometer (FACS Canto/Becton Dickinson).
Phage clones with signal higher than four-fold above the background were further tested for their binding to DLL3 on the surface of cells expressing DLL3 by cell ELISA. Briefly, parental cells and cells overexpressing DLL3 were plated on 96 well plate the day before the assay. The cells were then fixed and washed before the addition of pre-blocked phages as previously described. The cells were then washed and anti-M13-HRP was added. The signal was measured using a Multiskan Ascent (Thermo) ELISA reader at A370 nm.

[2] = biological target: T2, recombinant DLL3 ectodomain (rhDLL3-Fc) (human, UniProt Q9NYJ7 27-492, biotinylated (NHS-LC-LC-biotin) in the BLI and SPR assays); assay: phage ELISA on rDLL3-Fc
T2 construct: also called rDLL3-Fc; recombinant human DLL3 (rDLL3); not shown: Fc part
T2 sequence: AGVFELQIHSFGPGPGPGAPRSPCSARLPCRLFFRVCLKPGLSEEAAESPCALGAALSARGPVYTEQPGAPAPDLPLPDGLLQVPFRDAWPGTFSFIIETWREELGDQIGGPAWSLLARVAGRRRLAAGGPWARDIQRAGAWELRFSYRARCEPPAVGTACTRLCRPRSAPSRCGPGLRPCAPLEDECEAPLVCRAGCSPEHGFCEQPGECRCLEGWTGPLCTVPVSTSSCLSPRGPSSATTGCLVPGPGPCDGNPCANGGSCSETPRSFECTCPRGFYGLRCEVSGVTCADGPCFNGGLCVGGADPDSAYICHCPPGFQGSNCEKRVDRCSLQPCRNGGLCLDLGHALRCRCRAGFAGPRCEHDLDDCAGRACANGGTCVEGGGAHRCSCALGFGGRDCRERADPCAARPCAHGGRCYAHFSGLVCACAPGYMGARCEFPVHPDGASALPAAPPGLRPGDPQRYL

[3] = biological target: T2, recombinant DLL3 ectodomain (rhDLL3-Fc); assay: SPR off-rate, single point (300 nM peptide), biotinylated rhDLL3-Fc on SA chip
Experimental: The off-rate screening of the peptides was done using a Biacore T200 instrument (Cytiva, Sweden). […] Peptides were diluted at 300 nM in PBS-P+1× buffer (Cytiva, Sweden) supplemented with 1% DMSO and 0.1% BSA, then injected over the ligand for five minutes at 30 μl/min, finally dissociation allowed for 1 h. Sensorgrams were analyzed by Biacore T200 Evaluation Software 3.0 (Cytiva, Sweden): specific binding was obtained by subtracting unspecific binding to naked biosensors and a zero analyte concentration made of binding assay buffer (double referencing). Kinetic parameters of koff were measured using a global fitting according to 1:1 Langmuir binding isotherm equation.

[4] = biological target: T2, recombinant DLL3 ectodomain (rhDLL3-Fc); assay: SPR (Biacore), biotinylated rhDLL3-Fc on SA chip

B1: SEQ ID NO 76 (peptide)
chain: AETVEFCRAYSNWFYIC
modifications: disulfide 7-17 (inferred); not fully specified (C-terminus)
notes: not shown: M13 pIII coat protein
Q: Which results are given for B1?
A: binding result [1]: binds; binding result [2]: binds

B2: SEQ ID NO 60 (peptide)
chain: AETVEFYGCQYYGWDYTCAW
notes: as for B1
Q: Which results are given for B2?
A: binding result [1]: binds; binding result [2]: binds

B3: SEQ ID NO 69 (peptide)
chain: AETVEFWGCNLDWYGWTCWW
modifications: not fully specified (bridges); cysteine pairing not given here
notes: as for B1
Q: Does B3 bind [1]?
A: Result: binds

Q: Does B3 bind [2]?
A: Result: binds

B4: SEQ ID NO 59 (peptide)
chain: AETVEFYGCYGEQEQWTCLW
notes: as for B1
Q: Does B4 bind [1]?
A: Result: binds

Q: Does B4 bind [2]?
A: Result: binds

B5: SEQ ID NO 58 (peptide)
chain: AETVEFYGCSVNADGWTCSW
notes: as for B1
Q: Does B5 bind [1]?
A: Result: binds

Q: Does B5 bind [2]?
A: Result: binds

B6: SEQ ID NO 67 (peptide)
chain: AETVEFYGCDLWKGWTVCGY
modifications: not fully specified (bridges); cysteine pairing not given here
notes: as for B1
Q: Which results are given for B6?
A: binding result [1]: binds; binding result [2]: binds

B7: SEQ ID NO 72 (peptide)
chain: AETVEFWTCWETTEGYGCNW
modifications: not fully specified (bridges); cysteine pairing not given here
notes: as for B1
Q: Does B7 bind [1]?
A: Result: binds

Q: Does B7 bind [2]?
A: Result: binds

B8: SEQ ID NO 63 (peptide)
chain: AETVEFMRCYPWWYGPMCVR
modifications: not fully specified (bridges); cysteine pairing not given here
notes: as for B1
Q: Does B8 bind [1]?
A: Result: binds

Q: Does B8 bind [2]?
A: Result: binds

B9: SEQ ID NO 70 (peptide)
chain: AETVEFWSCVVYGDNWTCSS
modifications: not fully specified (bridges); cysteine pairing not given here
notes: as for B1
Q: Does B9 bind [1]?
A: Result: binds

Q: Does B9 bind [2]?
A: Result: binds

B10: SEQ ID NO 65 (peptide)
chain: AETVEFWTCWTVYGKSSCWD
modifications: not fully specified (bridges); cysteine pairing not given here
notes: as for B1
Q: Does B10 bind [1]?
A: Result: binds

Q: Does B10 bind [2]?
A: Result: binds

B11: PepSP1581 (peptide)
peptide: Ac-AETVEFWWCNGNSENWTCTWGG-{Ttds″-K(PEG3)}
modifications: disulfide 9-18 (inferred); also: dimer linked via PEG4-DBCO-FEA
notes: also called dimeric FEA derivative of PepSP1487
Q: With B11 as the binder, how does the koff [3] read?
A: The koff was 3.4e-05 s⁻¹.

B12: SEQ ID NO 75 (peptide)
chain: AETVEFYNCWYKMGWYVCWS
modifications: disulfide 9-18 (inferred); not fully specified (C-terminus)
notes: as for B1
Q: Does B12 bind [1]?
A: Result: binds

Q: Does B12 bind [2]?
A: Result: binds

B13: PepSP1487 (peptide)
peptide: Ac-AETVEFWWCNGNSENWTCTWGG-{Ttds″-K(PEG3)}
modifications: disulfide 9-18 (inferred); also: dimer of two copies, carries PEG4-DBCO
notes: also called PspSP1487
Q: How did the Kd [4] turn out when B13 was run?
A: The Kd was 5.5 nM.

Q: What about the koff [4] of the same binder?
A: Its koff is 0.00042 s⁻¹.

Q: What about the kon [4] of the same binder?
A: Its kon is 76000 M⁻¹ s⁻¹.

B14: PepSP1583 (peptide)
peptide: Ac-AETVEFWWCNGNSENWTCTWGG-{Ttds″-K(Ttds-Ttds-PEG3)}
modifications: disulfide 9-18 (inferred); not fully specified; printed as [Ac-AETVEFWWCNGNSENWTCTW-GG-Ttds-K(Ttds-Ttds-PEG3)]2-PEG4-DBCO-; also: dimer linked via PEG4-DBCO-FEA
notes: also called dimeric FEA derivative of PepSP1489
Q: For B14, which koff [3] is on record?
A: The koff was 3.2e-05 s⁻¹.

B15: PepSP1462 (peptide)
peptide: Ac-AETVEFWWCNGNSENWTCTWGG-{Ttds-K(PEG4-DBCO)-NH2}
modifications: disulfide 9-18 (inferred)
notes: also called PspSP1462
Q: For B15, which Kd [4] is on record?
A: Its Kd is 6.3 nM.

Q: And the koff [4]?
A: The koff was 0.0014 s⁻¹.

Q: What about the kon [4] of the same binder?
A: The kon was 230000 M⁻¹ s⁻¹.

B16: SEQ ID NO 66 (peptide)
chain: AETVEFYGCWWDAYGSTCTW
modifications: not fully specified (bridges); cysteine pairing not given here
notes: as for B1
Q: What does the source list for B16?
A: binding result [1]: binds; binding result [2]: binds

B17: PepSP1489 (peptide)
peptide: Ac-AETVEFWWCNGNSENWTCTWGG-{Ttds″-K(Ttds-Ttds-PEG3)}
modifications: disulfide 9-18 (inferred); also: dimer linked via PEG4-DBCO
notes: also called PspSP1489
Q: With B17 as the binder, how does the Kd [4] read?
A: Its Kd is 3.3 nM.

Q: What about the koff [4] of the same binder?
A: The koff was 0.00037 s⁻¹.

Q: What about the kon [4] of the same binder?
A: Its kon is 110000 M⁻¹ s⁻¹.

B18: SEQ ID NO 68 (peptide)
chain: AETVEFRYCTHTQTYVQCQD
modifications: not fully specified (bridges); cysteine pairing not given here
notes: as for B1
Q: Does B18 bind [1]?
A: Result: binds

Q: Does B18 bind [2]?
A: Result: binds

B19: SEQ ID NO 73 (peptide)
chain: AETVEFWGCTGGAWEYTCWW
modifications: disulfide 9-18 (inferred); not fully specified (C-terminus)
notes: as for B1
Q: What does the source list for B19?
A: binding result [1]: binds; binding result [2]: binds

B20: PepSP1538 (peptide)
peptide: Ac-AETVEFWWCNGNSENWTCTWGG-{Ttds″-K(PEG4-DBCO-FEA)-NH2}
modifications: disulfide 9-18 (inferred)
notes: also called monomeric Fluoroethylazide (FEA) derivative of PepSP1462
Q: B20 was tested. Which koff [3] did it give?
A: Its koff is 0.0039 s⁻¹.

B21: PepSP1582 (peptide)
peptide: Ac-AETVEFWWCNGNSENWTCTWGG-{Ttds″-K(PEG4-PEG3)}
modifications: disulfide 9-18 (inferred); also: dimer linked via PEG4-DBCO-FEA
notes: also called dimeric FEA derivative of PepSP1488
Q: Which koff [3] does the source give for B21 here?
A: The koff was 3.6e-05 s⁻¹.

B22: SEQ ID NO 64 (peptide)
chain: AETVEFWGCLGMGYDRTCWW
modifications: not fully specified (bridges); cysteine pairing not given here
notes: as for B1
Q: Which results are given for B22?
A: binding result [1]: binds; binding result [2]: binds

B23: SEQ ID NO 74 (peptide)
chain: AETVEFYGCSVTWGGYTCTW
modifications: disulfide 9-18 (inferred); not fully specified (C-terminus)
notes: as for B1
Q: What does the source list for B23?
A: binding result [1]: binds; binding result [2]: binds

B24: SEQ ID NO 71 (peptide)
chain: AETVEFWSCQLGSGWWTCAW
modifications: not fully specified (bridges); cysteine pairing not given here
notes: as for B1
Q: Does B24 bind [1]?
A: Result: binds

Q: Does B24 bind [2]?
A: Result: binds

B25: PepSP1488 (peptide)
peptide: Ac-AETVEFWWCNGNSENWTCTWGG-{Ttds″-K(PEG4-PEG3)}
modifications: disulfide 9-18 (inferred); also: dimer linked via PEG4-DBCO
notes: also called PspSP1488
Q: How did the Kd [4] turn out when B25 was run?
A: The Kd was 2.6 nM.

Q: And the koff [4]?
A: Its koff is 0.00031 s⁻¹.

Q: What about the kon [4] of the same binder?
A: The kon was 120000 M⁻¹ s⁻¹.

B26: SEQ ID NO 61 (peptide)
chain: AETVEFYGCWGNYNDYTCSW
notes: as for B1
Q: Does B26 bind [1]?
A: Result: binds

Q: Does B26 bind [2]?
A: Result: binds

B27: SEQ ID NO 62 (peptide)
chain: AETVEFETCWYLYGREWCVG
modifications: not fully specified (bridges); cysteine pairing not given here
notes: as for B1
Q: Does B27 bind [1]?
A: Result: binds

Q: Does B27 bind [2]?
A: Result: binds
